Values belong to the molecule of their own block, whether it stands above or below them.
B2: SpoIIIJ-His6 (natural protein, Bacillus subtilis, UniProt Q01625 23-261, looked up)
chain: CSSVKEPITADSPHFWDKYVVYPLSELITYVAKLTGDNYGLSIILVTILIRLLILPLMIKQLRSSKAMQALQPEMQKLKEKYSSKDQKTQQKLQQETMALFQKHGVNPLAGCFPILIQMPILIGFYHAIMRTQAISEHSFLWFDLGEKDPYYILPIVAGVATFVQQKLMMAGNAQQNPQMAMMLWIMPIMIIVFAINFPAALSLYWVVGNLFMIAQTFLIKGPDIKKNPEPQKAGGKKK
modifications: Cys23 of the lipoprotein-type signal peptide is modified during insertion of the protein into the membrane
notes: SpoIIIJ, membrane protein insertase of the YidC/Oxa1/Alb3 family, Bacillus subtilis; calculated mass 27 kDa; Purified protein is a mixture of monomers and dimers; it also holds proteolytic products starting at L122; also called full-length mature SpoIIIJ-His6; SpoIIIJ^wt-His6; source: E. coli C43(DE3) bearing pMS266, membrane fraction solubilised with 2% DDM, purified (Ni2+-NTA); not shown: His6, …

How the values were obtained:
[1] = target: SpoIIIJ^C134A-His6 (Bacillus subtilis) (UniProt Q01625); assay: SEC; Superose 12 HR 10/30; 20 mM Tris-HCl pH 7.6, 10% glycerol, 0.5 M NaCl, 0.1% DDM, 100 mM imidazole; fractions immunoblotted; peak areas estimated with ImageJ
[2] = target: B2; assay: SDS-PAGE with or without reducing agent; purified protein in loading buffer with (100 mM) or without DTT; Coomassie staining or immunoblot with anti-His6; bands a and b cut out and run again; settings: both partners purified
[3] = target: the molecule itself; assay: as above
[4] = target: the molecule itself; assay: SEC; Superose 12 HR 10/30; 20 mM Tris-HCl pH 7.6, 10% glycerol, 0.5 M NaCl, 0.1% DDM, 100 mM imidazole; fractions immunoblotted; peak areas estimated with ImageJ

ratio of peak areas B (monomer size) to A (dimer size) (peak B : peak A) [1]: 0.4
Molecule: SpoIIIJ^C134A-His6 (from UniProt Q01625 23-261) (natural protein)

binding result [2]: binds
B1: truncated SpoIIIJ-His6 starting at L122 (fragment "c", lacking TM1) (domain or fragment, Bacillus subtilis, UniProt Q01625 122-261, looked up)
chain: LFQKHGVNPLAGCFPILIQMPILIGFYHAIMRTQAISEHSFLWFDLGEKDPYYILPIVAGVATFVQQKLMMAGNAQQNPQMAMMLWIMPIMIIVFAINFPAALSLYWVVGNLFMIAQTFLIKGPDIKKNPEPQKAGGKKK
notes: SpoIIIJ, Bacillus subtilis; about 16 kDa product of cleavage at L122 in the cytoplasmic loop between TM1 and TM2: the rest of that loop to the end of the protein (includes TM2 with Cys134); Two species of about 15 kDa both start at L122; The cause of their different mobility is not known; also called band c; truncated SpoIIIJ monomer (lacking TM1); source: E. coli C43(DE3), proteolytic product …

Molecule: B2
stoichiometry N [3]: 2 | ratio of peak areas B (monomer size) to A (dimer size) [4]: 0.111 peak B : peak A | stoichiometry N [4]: ~2

Reference: publication PMC4136701, “A Conserved Cysteine Residue of Bacillus subtilis SpoIIIJ Is Important for Endospore Development” (PLoS ONE, 2014)
